Legend:
Test in all cases: flow cytometry on transfected HEK293F cells
[1] = biological target: T1, human B7-H3 expressed on HEK293F cells (human, UniProt Q5ZPR3 29-534)
T1 construct: whole, on cells
T1 sequence (looked up): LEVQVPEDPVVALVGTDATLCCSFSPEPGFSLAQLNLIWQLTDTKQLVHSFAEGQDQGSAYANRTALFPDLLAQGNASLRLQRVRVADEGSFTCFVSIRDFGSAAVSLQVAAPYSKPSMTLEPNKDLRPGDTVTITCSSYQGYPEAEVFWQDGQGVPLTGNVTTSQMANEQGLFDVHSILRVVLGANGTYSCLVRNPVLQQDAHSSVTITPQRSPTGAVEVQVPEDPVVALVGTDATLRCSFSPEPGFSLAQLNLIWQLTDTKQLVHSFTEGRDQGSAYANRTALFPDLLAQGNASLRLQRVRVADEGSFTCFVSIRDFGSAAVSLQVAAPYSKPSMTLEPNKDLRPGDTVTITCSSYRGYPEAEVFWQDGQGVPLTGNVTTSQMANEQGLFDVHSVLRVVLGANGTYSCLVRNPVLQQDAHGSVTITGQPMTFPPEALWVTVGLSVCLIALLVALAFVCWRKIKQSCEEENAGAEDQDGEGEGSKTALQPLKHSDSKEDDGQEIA
Experimental: (§1) The selectivity of antibodies for PD-L1 was evaluated using flow cytometry. Briefly, human, rhesus and mouse PD-L1, as well as human PD1, CTLA4, LAG3, TIM3 and B7-H3 were transiently expressed on the membrane of HEK293F cells individually. Transfected cells were washed in pre-chilled staining buffer (PBS supplemented with 2% FBS), then incubated with 100 nM test antibodies for 1 hr on ice. Cells were washed twice with staining buffer, and Phycoerythrin (PE)-conjugated mouse anti-human Fc antibodies were added and incubated for 30 min on ice. Samples were washed once with staining buffer prior to analysis by flow cytometry.

[2] = biological target: T2, human LAG3 expressed on HEK293F cells (human, UniProt P18627 23-525)
T2 construct: whole, on cells
T2 sequence (looked up): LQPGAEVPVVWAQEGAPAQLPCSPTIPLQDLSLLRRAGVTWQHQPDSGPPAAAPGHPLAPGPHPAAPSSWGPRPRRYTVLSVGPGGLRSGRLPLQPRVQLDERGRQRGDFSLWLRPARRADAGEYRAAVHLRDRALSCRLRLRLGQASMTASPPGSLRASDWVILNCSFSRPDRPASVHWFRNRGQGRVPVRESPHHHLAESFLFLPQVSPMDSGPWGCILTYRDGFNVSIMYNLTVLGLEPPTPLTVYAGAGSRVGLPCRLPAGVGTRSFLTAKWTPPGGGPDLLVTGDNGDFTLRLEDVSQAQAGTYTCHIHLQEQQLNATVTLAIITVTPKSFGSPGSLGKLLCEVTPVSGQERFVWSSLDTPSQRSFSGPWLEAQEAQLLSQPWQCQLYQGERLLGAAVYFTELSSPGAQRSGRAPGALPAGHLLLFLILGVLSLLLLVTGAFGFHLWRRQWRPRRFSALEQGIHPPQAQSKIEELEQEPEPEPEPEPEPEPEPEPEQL
Experimental: as §1

[3] = biological target: T3, human PD1 expressed on HEK293F cells (human, UniProt Q15116 25-288)
T3 construct: whole, on cells
T3 sequence (Q15116 25-288): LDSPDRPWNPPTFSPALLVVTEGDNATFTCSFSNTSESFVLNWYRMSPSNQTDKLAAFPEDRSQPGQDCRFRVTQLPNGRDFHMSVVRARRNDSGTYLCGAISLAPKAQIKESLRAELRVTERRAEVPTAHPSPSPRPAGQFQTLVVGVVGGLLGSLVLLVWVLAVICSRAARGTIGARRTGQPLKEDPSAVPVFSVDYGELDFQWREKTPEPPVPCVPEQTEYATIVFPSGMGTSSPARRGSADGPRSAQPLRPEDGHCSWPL
Experimental: as §1

[4] = biological target: T4, human CTLA4 expressed on HEK293F cells (human, UniProt P16410 36-223)
T4 construct: whole, on cells
T4 sequence (P16410 36-223): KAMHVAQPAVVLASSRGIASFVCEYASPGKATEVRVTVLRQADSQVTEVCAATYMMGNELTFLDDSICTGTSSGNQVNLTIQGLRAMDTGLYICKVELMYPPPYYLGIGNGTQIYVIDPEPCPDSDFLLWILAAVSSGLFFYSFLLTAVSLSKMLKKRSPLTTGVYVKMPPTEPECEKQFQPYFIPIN
Experimental: as §1

[5] = biological target: T5, human TIM3 expressed on HEK293F cells (human, UniProt Q8TDQ0 22-301)
T5 construct: whole, on cells
Experimental: as §1

binding result [1]: no binding (tested: 100 nM)
binding result [2]: no binding (tested: 100 nM)
binding result [3]: no binding (tested: 100 nM)
binding result [4]: no binding (tested: 100 nM)
binding result [5]: no binding (tested: 100 nM)
B1: TY21421 (antibody, V domains shown)
VH: EVQLVESGGGLVQPGGSLRLSCAASGYSISSGYYWGWIRQAPGKGLEWIGIIYPSGGGTNYAQKFQGRVTISRDNSKNTLYLQLNSLRAEDTAVYYCARGGGLGFDYWGQGTLVTVSS
VL: DIQLTQSPSSLSASVGDRVTITCRASQSIPSFLNWYQQKPGKAPKLLIYAASSLQSGVPSRFSGSGSGTDFTLTISSLQPEDFATYYCQHYISWPRQFTFGQGTKVEIKR
notes: IgG1 (wild type) made from Fab B15041, from HEK293F cells
